According to patent publication US20230137139A1, “BIOSYNTHESIS OF CANNABINOIDS AND C[…]” (priority 2020, published 2023):
Substitutions are numbered along the chain they refer to.

B1: t865748 (protein)
chain: MGNTTSIAGRDCLISALGGNSALAVFPNELLWTADVHEFNLNLPVTPAAITYPETAAQIAGVVKCASDYDYKVQARSGGHSFGNYGLGGADGAVVVDMKHFTQFSMDDETYEAVIGPGTTLNDVDIELYNNGKRAMAHGVCPTIKTGGHFTIGGLGPTARQWGLALDHVEEVEVVLANSSIVRASNTQNQDVFFAVKGAAANFGIVTEFKVRTEPAPGLAVQYSYTFNLGSTAEKAQFVKDWQSFISAKNLTRQFYNNMVIFDGDIILEGLFFGSKEQYDALGLEDHFAPKNPGNILVLTDWLGMVGHALEDTILKLVGNTPTWFYAKSLGFRQDTLIPSAGIDEFFEYIANHTAGTPAWFVTLSLEGGAINDVAEDATAYAHRDVLFWVQLFMVNPVGPISDTTYEFTDGLYDVLARAVPESVGHAYLGCPDPRMEDAQQKYWRTNLPRLQELKEELDPKNTFHHPQGVMPA
modifications: expressed in S. cerevisiae strain
B2: t878468 (protein)
chain: B1 chain with F39Y, A57E
modifications: expressed in S. cerevisiae strain
B3: t865755 (protein)
chain: B1 chain with F39Y, L392H
modifications: expressed in S. cerevisiae strain
B4: t865732 (protein)
chain: B1 chain with F39Y, H426Y
B5: t865724 (protein)
chain: B1 chain with F39Y, T102N
B6: t865747 (protein)
chain: B1 chain with F39Y, V398A
modifications: expressed in S. cerevisiae strain
B7: t865730 (protein)
chain: B1 chain with F39Y, N202G
B8: t865745 (protein)
chain: B1 chain with F39Y, V63I
modifications: expressed in S. cerevisiae strain
B9: t865735 (protein)
chain: B1 chain with F39Y, T446P
B10: t865718 (protein)
chain: B1 chain with F39Y, P472R
B11: t865742 (protein)
chain: B1 chain with F39Y, E112T

Experiments:
[1] = test system: CBCA, THCA, and CBDA production; test: In vivo TS activity assay, Example 2 protein engineering of A. niger CBCAS, cultures fed olivetolic acid; assay type: cell-based, S. cerevisiae; settings: for Mean CBCA / Mean CBDA / Mean THCA: secondary screen, olivetolic acid (Table 8); for % CBCA / % CBDA / % THCA: share of terminal cannabinoid product profile
In short: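 S. cerevisiae expressing A. niger CBCAS mutants (MFalpha2/HDEL-tagged) grown 2 days at 30 °C in YEP+4% dextrose, then 4 days at 20 °C in YEP+4% galactose with 1 mM olivetolic acid, spiked every 24 h with 2% galactose and 1 mM olivetolic acid. 100 mM citrate pH 5.5 added, methanol-extracted; CBCA, THCA, CBDA quantified by LC-MS.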

[2] = test system: CBCVA, THCVA, and CBDVA production; test: In vivo TS activity assay, Example 2 protein engineering of A. niger CBCAS, cultures fed divaric acid; assay type: cell-based, S. cerevisiae; settings: for Mean CBCVA / Mean CBDVA / Mean THCVA: S. cerevisiae strains expressing A. niger CBCAS mutants; for Mean CBCVA / Mean CBDVA / Mean THCVA / average CBCVA titer compared with the A. niger positive control: secondary screen; for Mean CBCVA / Mean CBDVA / Mean THCVA / % CBCVA / % CBDVA / % THCVA: fed divaric acid; for % CBCVA / % CBDVA / % THCVA: share of terminal cannabinoid product profile
In short: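 S. cerevisiae expressing A. niger CBCAS point mutants (N-terminal MFalpha2, C-terminal HDEL signal peptides) grown 2 days at 30 °C in YEP+4% dextrose, then 4 days at 20 °C in YEP+4% galactose with 1 mM divaric acid plus daily 2% galactose and 1 mM divaric acid spikes, then 2 days with 100 mM sodium citrate pH 5.5. Methanol extracts analysed by LC-MS; quadruplicate.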

Molecule | Mean CBCA [1] [µg/L] | Mean CBDA [1] [µg/L] | Mean THCA [1] [µg/L] | % CBCA [1] [%] | % CBDA [1] [%] | % THCA [1] [%] | Mean CBCVA [2] [µg/L] | Mean CBDVA [2] [µg/L] | Mean THCVA [2] [µg/L] | average CBCVA titer compared with the A. niger positive control [2] | % CBCVA [2] [%] | % CBDVA [2] [%] | % THCVA [2] [%]
B1 | 21260.42 | 6161.32 | 1575.92 | 73.32 | 21.25 | 5.43 | 3759.89 | 0.00 | 1591.63 | higher | 70.26 | 0.00 | 29.74
B2 | 26823.18 | 8556.40 | 1922.88 | 71.91 | 22.94 | 5.15 | 2954.90 | 0.00 | 1628.92 | – | 64.46 | 0.00 | 35.54
B3 | 19432.21 | 4507.57 | 1001.22 | 77.91 | 18.07 | 4.01 | 3729.91 | 0.00 | 1768.56 | higher | 67.84 | 0.00 | 32.16
B4 | 22672.81 | 6720.79 | 1523.15 | 73.34 | 21.74 | 4.93 | 4734.85 | 0.00 | 2408.74 | higher | 66.28 | 0.00 | 33.72
B5 | 30758.44 | 7663.56 | 2146.00 | 75.82 | 18.89 | 5.29 | 2190.11 | 0.00 | 1153.25 | – | 65.51 | 0.00 | 34.49
B6 | 18021.77 | 4783.24 | 1188.04 | 75.11 | 19.94 | 4.95 | 5571.51 | 0.00 | 2154.32 | higher | 72.12 | 0.00 | 27.88
B7 | 27874.45 | 8385.38 | 1771.94 | 73.29 | 22.05 | 4.66 | 3406.05 | 0.00 | 1922.88 | – | 63.92 | 0.00 | 36.08
B8 | 27923.31 | 7360.14 | 1963.25 | 74.97 | 19.76 | 5.27 | 7068.26 | 0.00 | 2991.05 | higher | 70.27 | 0.00 | 29.73
B9 | 27519.94 | 7436.20 | 1783.72 | 74.90 | 20.24 | 4.85 | 2900.35 | 0.00 | 1459.81 | – | 66.52 | 0.00 | 33.48
B10 | 28669.67 | 7340.65 | 1640.20 | 76.15 | 19.50 | 4.36 | 5888.44 | 0.00 | 2516.89 | higher | 70.06 | 0.00 | 29.94
B11 | 31427.04 | 9022.22 | 2036.13 | 73.97 | 21.24 | 4.79 | 2864.87 | 0.00 | 1514.38 | – | 65.42 | 0.00 | 34.58
